# Test results taken from article PMC8822174, “Evidence for the Rapid and Divergent Evolution of Mycoplasmas: Structural and Phylogenetic Analysis of Enolases” (Frontiers in Molecular Biosciences, 2021).
# B1: Mycoplasma bovis enolase (enzyme)
# chain: MPIIERIQAREILDSRGNPTVQVEVTTDYEITGVANVPSGASTGSREALELRDKGTKYEGNWFGGKGVMTAVDNVNEKIAPELIGMSVFDQRAIDKLMIELDGTATKSKLGANAILGVSLAVARAAATELGMPLYRYIGGANAHTLPLPMLNVLNGGEHASNTVDFQEFMIMPVGAKSLREALQMANKVFHNLAKLLKKAGYGTQVGDEGGFAPNCKSHEEVLDYLVEAIKVAGYTPATSGKNAIAIALDAACSELYDENSKKYTFKKLKQAIAEKRSGFEHLDNVKLEYTTDELIEYFGKLIDKYPIISIEDGLAESDWEGFAKMTAKFGSKVQIVGDDLTVTNPKLLEKAIEQKSMNAILIKLNQIGSLSETMDAINKAQKANMACVVSHRSGETEDTTIADLAVAFNTGQIKTGSMSRTDRIAKYNRLLVIEEELGEQSEFEGSKAFYNIK
# notes: also called Mb Eno; M. bovis Eno
# B2: Mycoplasma pneumoniae enolase (enzyme)
# chain: MSAQTGTDLFKIADLFAYQVFDSRGFPTVACVVKLASGHTGEAMVPSGASTGEKEAIELRDGDPKAYFGKGVSQAVQNVNQTIAPKLIGLNATDQAAIDALMIQLDGTPNKAKLGANAILAVSLAVAKAAASAQKTSLFKYLANQVMGLNKTEFILTVPMLNVINGGAHADNNIDFQEFMIMPLGANSMHQALKMASETFHALQKLLKQRGLNTNKGDEGGFAPNLKLAEEALDLMVEAIKAAGYQPGSDIAIALDVAASEFYDDTTKRYVFKKGIKAKILDEKEWSLTTAQMIAYLKKLTEQYPIISIEDGLSEHDWEGMETLTKTLGQHIQIVGDDLYCTNPAIAEKGVAHKATNSILIKLNQIGTLTETIKAINIAKDANWSQVISHRSGETEDTTIADLAVAACTGQIKTGSMSRSERIAKYNRLLQIELELGNNAKYLGWNTFKNIKPQKA
# notes: also called Mp Eno; M. pneumoniae Eno
# Target: the molecule itself
# Assay: native gel or EMSA
row,Protein,stoichiometry N
1,B1,8
2,B2,2
